Sequences and labels used below:
B1: chicken cystatin (protein, UniProt P01038 24-139, looked up)
chain: SEDRSRLLGAPVPVDENDEGLQRALQFAMAEYNRASNDKYSSRVVRVISAKRQLVSGIKYILQVEIGRTTCPKSSGDLQSCEFHDEPEMAKYTTCTFVVYSIPWLNQIKLLESKCQ
B2: porcine stefin B (protein, UniProt Q29290 1-98, looked up)
chain: MMCGAPSATQPATAEIQAIADKVKSQLEEKENKTFPVFKAVEFKSQVVAGRNLFIKVQVDDDDFVHLRVFESLPHENKPLTLSSYQTNKSRHDELTYF
B3: human cystatin c (protein, UniProt P01034 27-146, looked up)
chain: SSPGKPPRLVGGPMDASVEEEGVRRALDFAVGEYNKASNDMYHSRALQVVRARKQIVAGVNYFLDVELGRTTCTKTQPNLDNCPFHDQPHLKRKAFCSFQIYAVPWQGTMTLSKSTCQDA
B4: potato multicystatin (protein, UniProt P37842 1-756, looked up)
chain: MAIVGGLVDVPFENKVEFDDLARFAVQDYNQKNDSSLEFKKVLNVKQQIVAGIMYYITFEATEGGNKKEYEAKILLRKWEDLKKVVGFKLVGDDSTMPGGIVNVPNPNNTKFQELARFAIQDYNKKQNAHLEFVENLNVKEQVVAGIMYYITLAATDDAGKKKIYKAKIWVKEWEDFKKVVEFKLVGDDIAKLGGITDVPFPNNPEFQDLARFAIQVYNKKENVHLEFVENLNVKQQVVAGMMYYITLAAIDAGKKKIYETKIWVKEWEDFKKVVEFKLVGDDSAKTGGIINVPNPNSPEFQDLARFAVQDYNNTQNAHLEFVENLNVKEQLVSGMMYYITLAATDAGNKKEYEAKIWVKEWEDFKKVIDFKLVGNDSAKKLGGFTEVPFPNSPEFQDLTRFAVHQYNKDQNAHLEFVENLNVKKQVVAGMLYYITFAATDGGKKKIYETKIWVKVWENFKKVVEFKLVGDDSAKLGGIINVPFPNNPEFQDLARFAVQDYNKKENAHLEFVENLNVKEQLVAGMLYYITLVAIDAGKKKIYEAKIWVKEWENFKKVIEFKLIGDDSAIIGGFTDVPFPNNPEFQDLARFAVQDYNKKENAHLEYVENLNVKEQLVAGMIYYITLVATDAGKKKIYEAKIWVKEWEDFKKVVEFKLVGDDSAKPGGIIIVPFPNSPEFQDLARFAVQDFNKKENGHLEFVENLNVKEQVVAGMMYYITLAATDARKKEIYETKILVKEWENFKEVQEFKLVGDATK
B5: bovine kininogen: Type III cystatin (protein, UniProt P01044 19-621, looked up)
Kininogen-1: QESSQEIDCNDQDVFKAVDAALTKYNSENKSGNQFVLYRITEVARMDNPDTFYSLKYQIKEGDCPFQSNKTWQDCDYKDSAQAATGECTATVAKRGNMKFSVAIQTCLITPAEGPVVTAQYECLGCVHPISTKSPDLEPVLRYAIQYFNNNTSHSHLFDLKEVKRAQRQVVSGWNYEVNYSIAQTNCSKEEFSFLTPDCKSLSSGDTGECTDKAHVDVKLRISSFSQKCDLYPVKDFVQPPTRLCAGCPKPIPVDSPDLEEPLSHSIAKLNAEHDGAFYFKIDTVKKATVQVVAGLKYSIVFIARETTCSKGSNEELTKSCEINIHGQILHCDANVYVVPWEEKVYPTVNCQPLGQTSLMKRPPGFSPFRSVQVMKTEGSTTVSLPHSAMSPVQDEERDSGKEQGPTHGHGWDHGKQIKLHGLGLGHKHKHDQGHGHHGSHGLGHGHQKQHGLGHGHKHGHGHGKHKNKGKNNGKHYDWRTPYLASSYEDSTTSSAQTQEKTEETTLSSLAQPGVAITFPDFQDSDLIATVMPNTLPPHTESDDDWIPDIQTEPNSLAFKLISDFPETTSPKCPSRPWKPVNGVNPTVEMKESHDFDLVDALL
B6: Recombinant Kunitz PCPI8.3 (produced in Pichia pastoris) (protein, potato, UniProt P20347 43-222, looked up)
chain: LVLPEVYDQDGNPLRIGERYIINNPLLGAGAVYLYNIGNLQCPNAVLQHMSIPQFLGEGTPVVFVRKSESDYGDVVRVMTVVYIKFFVKTTKLCVDQTVWKVNDEQLVVTGGKVGNENDIFKIMKTDLVTPGGSKYVYKLLHCPSHLGCKNIGGNFKNGYPRLVTVDDDKDFIPFVFIKA
B7: rat stefin A (protein, UniProt P01039 1-103, looked up)
chain: MDPGTTGIVGGVSEAKPATPEIQEVADKVKRQLEEKTNEKYEKFKVVEYKSQVVAGQILFMKVDVGNGRFLHMKVLRGLSGDDDLKLLDYQTNKTKNDELTDF
B8: porcine stefin D1 (protein, UniProt P35479 1-103, looked up)
chain: MESEEMLAGGLTEPRPATPEIQEIANKVKPQLEEKTNKTYEKFEAIIYRSQVVAGTNYYIKVHVGGNNYVHIRVFQSLPHQEDPLKLIGYQVDKTKDDELTGF

The test system of the first assay is Colorado potato beetle larval gut extracts (potato protease inhibitor-insensitive cysteine proteases). As to the kind of experiment: General proteolytic activity of Colorado potato beetle larval gut extracts, azocasein. The class given is biochemical, Leptinotarsa decemlineata. The text has this:
Guts of final instar Colorado potato beetle larvae reared on methyl jasmonate induced plants were isolated and extracted essentially as described (Bolter and Jongsma, J. Insect Physiol. 41: 1071-1078). In these gut extracts the proteases that are sensitive to the protease inhibitors of potato are already complexed. The residual protease activity is composed of potato protease-inhibitor-insensitive proteases which were induced in response to the methyl jasmonate induced potato inhibitors. These proteases are the proteases that render the beetle larvae insensitive to protease inhibitor defense of the potato plant. Wle tested a broad range of different cysteisie protease inhibitors for activity specifically against these induced potato protease inhibitor-insensitive cysteine protesses. Nearly all of these inhibitors were purified at the Jozef Stefan Institute in Slovenia. Testing their potential against Colorado potato beetle was done using both general protein substrates (azocasein, table 2) as well as specific synthetic substrates (L-Arg-pNA, table 3; pGlu-Phe-Leu-pNA, table 4; Z-Phe-Arg-pNA, table 5; Z-Arg-Arg-pNA, table 6). In specific cases inhibitors were tested at two concentrations, eauimolar and in excess to the protease, in order to obtain an indication of the tightness of the complex. […] Importantly, this class of inhibitors was capable of inhibiting nearly all general cysteine protease activity. The equistatin peptide molecule and a functional derivative thereof were not very active against the aminopeptidase-like cysteine protease activity. […] The best combination of inhibitors for full toxicity against the Colorado potato beetle would therefore be a combination of equistatin or p41 invariant chain fragment and stefin-like inhibitors.
With B1, the “Residual activity in excess of inhibitor” value stood at 105%.

On to B2, for which the “Residual activity in excess of inhibitor” value turned out to be 100%. The same measure, in the same setting: the value for B3 was 105%; that for B4 was 90%; that for B5 was 110%.

The target in the next assay is proteases in extracts of adult leafminer flies (Liriomyza trifolii). The assay is described as follows: cell-based or functional assay.
“Aspartic protease inhibitor (API) purified from potato” displayed a residual protease activity (FITC-hemoglobin), pH 3.5 (% residual activity) of 37.

“Recombinant potato cystatin (p.cystatin), a monomer of multicystatin expressed as a fusion protein with glutathione-S-transferase” yielded a residual protease activity (FITC-hemoglobin), pH 3.5 (% residual activity) of 73. Still for that read-out and setting: the value for B6 was 43.

The next assay addresses potato protease inhibitor-insensitive cysteine proteases of Colorado potato beetle (Leptinotarsa decemlineata) larval gut extracts. The assay is described as follows: cell-based or functional assay.
With “human kininogen 3rd domain (from UniProt P01042 273-376)”, the residual general proteolytic activity (azocasein) in excess of inhibitor (% residual activity) was 20. On the same count and under the same terms, the value for “human LMW kininogen (from UniProt P01042 19-427)” was 65; that for Chelidonium majus cystatin was 100. The same measure, in the same setting: the same measure for bromelain inhibitor: 110; for soybean cystatin: 65; for bovine kininogen: 110. On the same count and under the same terms, the value for PCPI 6.6 was 120; that for lens cystatin was 60. Consider “Recombinant human stefin A (from UniProt P01040 1-98)”, for which the residual amino-peptidase activity (L-Arg-pNA), equimolar inhibitor (% of residual activity) amounted to 60; the residual amino-peptidase activity (L-Arg-pNA), excess inhibitor (% of residual activity) came to 10; the residual broad spectrum endoprotease activity (Z-Phe-Arg-pNA), equimolar inhibitor (% of residual activity) is 95; the residual broad spectrum endoprotease activity (Z-Phe-Arg-pNA), excess inhibitor (% of residual activity) is 80. The residual general proteolytic activity (azocasein) in excess of inhibitor (% residual activity) worked out at 90; the residual narrow spectrum endoprotease activity (Z-Arg-Arg-pNA), excess inhibitor (% of residual activity) was found to be 90; the residual tri-peptidil-peptidase and endoprotease activity (pGlu-Phe-Leu-pNA), equimolar inhibitor (% of residual activity) amounted to 95; the residual tri-peptidil-peptidase and endoprotease activity (pGlu-Phe-Leu-pNA), excess inhibitor (% of residual activity) was determined as 90. As to “porcine stefin D2 (from UniProt P80736 1-35)”, the residual general proteolytic activity (azocasein) in excess of inhibitor (% residual activity) turned out to be 105. On to cowpea cystatin, for which the residual general proteolytic activity (azocasein) in excess of inhibitor (% residual activity) was 75. The same measure, in the same setting: the same measure for B1: 105; for B2: 100. On the same count and under the same terms, the value for B3 was 105; that for B4 was 90. The same measure, in the same setting: the value for B7 was 90. With B8, the residual general proteolytic activity (azocasein) in excess of inhibitor (% residual activity) came to 105.

The values are drawn from patent US6861578B1, “Method for plant protection against insects or nematodes by transformation with a nucleic acid encoding equistatin” (Plant Research International B.V., priority 1997, dated 2005).
